The series in a line: yeast display, Sf9 membrane polyspecificity reagent, FACS + sequencing; frameworks hold sequencing errors. The method in brief: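 Synthetic nanobody libraries on Saccharomyces cerevisiae BJ5465 were galactose-induced for 36–48 hours, stained 1 hour at 4 °C with 10% biotinylated, detergent-solubilized Sf9 membrane reagent and enriched on streptavidin microbeads. FACS then separated cells into low and high (top ~1%) gates by anti-HA (expression) and streptavidin (reagent binding) fluorescence. Genes were colony-PCR amplified, MiSeq 2 × 250 sequenced and CDR-length filtered. A clone's polyreactivity label is that of its gate of origin.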
For the sequence “QVQLVESGGGLVQAGGSLRLSCAASGRIFGRYAMGWYRPAPGKERELVAGISARGGSTYYADSVKGRFTISRDNAKNTVYLQMNSLKPEDTAVYYCAARPYSIVPYDYWGQGTQVTVSS”, the “polyreactivity (PSR sort gate)” value is given as “high polyreactivity”. In the case of “QVQLVESGGGLVQAGGSLRLSCAASGRTLSNYAMGWYRQAPGKERELVAAISSSGSTNYADSVKGRFTISRDNAKNTVYLQMNSLKPEDTAVYYCAAESWFLRWYRYDYWGQGTQVTVSS”, the “polyreactivity (PSR sort gate)” value was “low polyreactivity”. Consider “QVQLVESGGGLVHAGGSLRISCAPSGLTFLYNAMGWYRQAPGKERELVAAISQSAGSTYYADSVKGRFTISRDNAKNTVYLQMNSLKPEDTAVYYCAAEWDSPDLVIYDYWGQGTQVTVSS”, for which the “polyreactivity (PSR sort gate)” value was “low polyreactivity”. The same measure for “QVQLVESGGGLVQAGGSLRLSCAASGFTFYSYAMGWYRQAPGKERELVAAISRSGTTTYYADSVKGRFTISRDNAKNTVYLQMNSLKPEDTAVYYCAARTTSSSLTPSLYYWGQGTQVTVSS”: “high polyreactivity”; for “QVQLVESGGGLVQAGGSLRLSCAASGRIFGYYAMGWYRQAPGKERELVAAITSGGRTYYADSVKGRFTISRDNAKNTVYLHMNSLKPEDTAVYYCAAVRALRKVRDYYYWGQGTQVTVSS”: “high polyreactivity”; for “QVQLVESGGGLVQAGGSLRLSCAASGITFSAYAMGWYRQAPGKERELVAAISWSGGNTYYADSVKGRFTISRDNAKNTVYLQMNSLKPEDTAVYYCAAEREAYNTWFDYWGQGTQVTVSS”: “high polyreactivity”. On to “QVQLVESGGGLVQAGGSLRLSCAASGRTFNHYAMGWYRQAPGKERELVPGITISGGSTYYADSVKGRFTISRDNAKNTVYLQMNSLKPEDTAVYYCNAVYDYYRQSNWTMDYWGQGTQVTVSS”, for which the “polyreactivity (PSR sort gate)” value is “low polyreactivity”. With “QVQLVESGGGLVQAGGSLRLSCAASGFILYGNTMGWYRQAPGKERELVAAISWSGGNTRYADSVKARFTISRDNAKNTVYLQMNSLQPEDTAVYYCAAYSNYVWSIRRDYWGQGTQVTVSS”, the “polyreactivity (PSR sort gate)” value is “low polyreactivity”.

“QVQLVESGGGLVQAGGSLRLSCAASGSTFWDYAMGWYRQAPGKERELVAAISSGGSTNYADSVKGRFTISRDNAKNTVYLQMNSLKPEDTAVYYCAVGYGGYYYWGQGTQVTVSS”: the “polyreactivity (PSR sort gate)” value is “high polyreactivity”. Regarding “QVQLVESGGGLVQAGGSLRLSCAASGFTFYWYAMGWYRQAPGKERELVAAISNRGGSTYYADSVKGRFTISRDNAKNTVYLQMNSLKPEDTAVYYCATESRGVGAARYDYWGQGTQVTVSS”, the “polyreactivity (PSR sort gate)” value is “high polyreactivity”. With “QVQLVESGGGLVQAGGSLRLSCAASGNTFYGYAMGWYRQAPGKERELVAAIRGSDGITFYADSVKGRFTISRDNAKNTVYLQMNSLKPEDTAVYYCAKDTYRSPRHDYGYWGQGTQVTVSS”, the “polyreactivity (PSR sort gate)” value is reported as “low polyreactivity”. The same measure for “QVQLVESGGGLVQAGGSLRLSCAASGSTFVTNGMGWYRQEPGKERELVAAISGNVGSTYYADSVKGRFTISRDNEKNTVYLQMNSLKPEDTAVYYCAARQYRPSDYDYWGQGTQVTVSS”: “low polyreactivity”. On to “QVQLVESGGGLVQAGGSLRLSCAASGIICVKYTMGWYRQAPGKERELVAAISRSGGSTYYADSVKGRFTISRDNAKNTVYLQMNSLKPEDTAVYYCNAVSRKVYPGPMDYWGHGTQVTVSS”, for which the “polyreactivity (PSR sort gate)” value is listed as “high polyreactivity”. The same measure for “QVQLRESGGGLVQAGGSLRLSCAASGRIFSVYAMGWDRQAPGKERELVAAITRVGSTNYADSVKGRFTISRDNAKNTVYLQMNSLKPEDTAVYYCAARSTGYPTGRMYYWGQGTQVTVSS”: “high polyreactivity”; for “QVQRVESGGGLVQAGGSLRLSCAASGRTFVFYDMGWYRQAPGKERELVAAITSSGGRTYYADSVKGRFTISRDNAKNTVYLQMYRVKPEDTAVYYCAAPYYPYKYDSWGQGTQVTVSS”: “low polyreactivity”; for “QVQLVESGGGLVQAGGSLRLSCAASGRIFDRYAMGWYRQAPGKERELVATIDSGGSTNYADSVKGRFTISRDNAKNTVYLQMNSLKPEDTAVYYCAVVTHSGYWSYYYWGQGTQVTVSS”: “low polyreactivity”. In the case of “QVQLVESGGGLVQAGGSLRLSCAASGSIFPGNAMGWSRQAPGKEREFVAAISWSGGSTYADSVKGRFTISRDNAKNTVYLQINSVKPEDTAVYYCAAVRRYLKAAYGYWGQGTKVTVSS”, the “polyreactivity (PSR sort gate)” value is reported as “low polyreactivity”. The same measure for “QVQLVESGGGLVQAGGSLRLSCAASGSTIRNYAMGWYRQAPGKERELVAAISSGGRTYYADSVKGRFTISRDNAKNTVYLQMNSLKPEDTAVYYCNTPYTVRGRYTYDYWGQGTQVTVSS”: “high polyreactivity”; for “QVQLEESGGGLVQAGGSLRLSCAASGRTSYSNAMGSYRQAPGQERELVAGITYRGGSTYYADSVKGRFTISRDNAKNTVYLQMNSLKPEDTAVYDCAVKYSWQSRFNYWGQGTQVTVSS”: “high polyreactivity”. For the sequence “QVQLVESGGGLVQAGGSLRLSCAASGSILDYYVMGWYRQAPGKERELVAAIRGGGSTYYADSVKGRFTISRDNEKNTVYLQMNRMKREDTAVNYCAAAVYGSYTTYGYFEHYFWGQGTQVTVSS”, the “polyreactivity (PSR sort gate)” value was “low polyreactivity”. With “QVQLVESGQGLVQAGGSLRLSCAASGFTFWGYTMGWYRQAPGKERELVAGITLSGGSTYYADSVKGRFTISRDNAKNTVYLEMNSLKPEDTAVYYCAAKPYQVSSYDFSLRDYWGQGTQVTVSS”, the “polyreactivity (PSR sort gate)” value was “low polyreactivity”. “QVQLVESGGGLVQAGGSLRLSCAASGSTFPKYAMGWYRQAPGKERELVAAISWSGDSTYYADSVKGRFTISRDNAKNSVYLQMNSLNPEDTAVYYCAAYNFIHAGPWEYDYWGQGTQVSVSS”: the “polyreactivity (PSR sort gate)” value is on record as “low polyreactivity”.

On to “QVQLVESGGGLVQAGGSLRLSCAASGSTFRDYAMGWSRQAPGKERELVAVISSSGSRTNYADSVKGRFTISRDNAKNTVYLQMNSLKREDTAVYYCAADTTRRAPGYYYWGQGTQVTVSS”, for which the “polyreactivity (PSR sort gate)” value is reported as “high polyreactivity”. For “QVQLVESGGGLVQAGGSLRLSCAASGFTFYAYAMGWYRQAPGKERELVAAITWSGGRTYYADSVKGRFTISRDNAKNTVYLQMNSLKPEDTAVYYCAKRYWGQARYHTGHDYWGQGTQVTVSS”, the “polyreactivity (PSR sort gate)” value is given as “high polyreactivity”.

In the case of “QVQLVESGGGLVQAGGSLRLSCAASGSTFPGNAMGWYRQAPGKEREFVAVISRSGGGTYYADSVKGRFTISRDNAKNTVYLQMNSLKPEDTAVYYCAARRGLWGYGTGNGYWGQGTQVTVSS”, the “polyreactivity (PSR sort gate)” value is listed as “low polyreactivity”.

Take “QVQLVESGGGLVQAGGSLRLSCAASGINFPGYAMGWYRQAPGKERELVAVIRKSGTSTYYADSVKGRFTISRDNAKNTVYLQMNSLKPEDTAVYYCAAGGPSTLDDYWGQGTQVTVSS”: the “polyreactivity (PSR sort gate)” value is on record as “low polyreactivity”. Take “QVQLVESGGGLVQAGGSLRLSCAASGNILRGYAMGWYRQAPGKERELVAAINRGGGSTYYADSVKGRFTISRDYAKNTVYFQMNSLKPEDTAVYYCAARYPHRGYTFDYWGQGTQVTVSS”: the “polyreactivity (PSR sort gate)” value is given as “low polyreactivity”. For the sequence “QVQLVDSGGGLVQAGGSLRLSCAASGFIFAHYAMGWYRPAPGKESELVAAISSRGGSTYYADSVKGRFTISRDNAKNTVYLQMNSLKPEDTAVYYCAKARHRPARGYEYWGQGTQVTVSS”, the “polyreactivity (PSR sort gate)” value was “high polyreactivity”. In the case of “QVQLVESGGGLVQAGGSLRLSCAASGSNFFSNAMGWYRQAPGKERELVAAITSTGGSTYYADSVKGRFTISRDNAKNTVYLQMNSLKPEVTAVYYCAAASRRGYYYWGQGTQVTVSS” it was “high polyreactivity”; in that of “QVQLVESGGGLVQAGGSLRLSCAASGSILEGNGMGWYRQAPGKERELVASITRSGGSTYYSDSVKGRFTISRDNAKNTVYLQMNSLKPEDTAVYYCAAKGSTYGLTIRWYPYLHGYNYWGQGTQVTVSS”, “low polyreactivity”.

Regarding “QDQLVESGGGLVQAGGSLRLSCAASGRIFHGNAMGWYRQARGKEWELVAAISRRGGSTYSADSVKGRFTISRDNAKNTVYLQMNSLKPEDTAVYYCAAVWPYGSRGAPMDYWGQGTQVTVSS”, the “polyreactivity (PSR sort gate)” value is listed as “high polyreactivity”. With “QVQLVESGGGLVQAGGSLRLSCAASGIIFWDYAMGWYSQAPGKERELVAAISSSGSTTYYADSVKGRFTISRDNAKNTVYLQMNSLKPEDTAVYYCAAESLYEDDKGDYWGQGTQVTVSS”, the “polyreactivity (PSR sort gate)” value is reported as “high polyreactivity”. Take “QVQLVESGGGLVQAGGSLRLSCAASGSIFRGYAMGWYIQAPGKERELVAAITSRGGSTYYADSVKGRFTISRDNAKNTVYLQMNSLKPEDTEVYYCNKRVYYPWGQGTQVTVSS”: the “polyreactivity (PSR sort gate)” value is recorded as “high polyreactivity”. In the case of “QDQLVESVGDLVQAGGSLRLSCAASGGIFQKYVMGWYRQAPGKERELVARITSVGSTYYADSVKGRFTISRDNAKNTVYLQMNSLKPEDTAVYYCNAELYRRSQGYRFTAFDYWGQGTQVTVSS”, the “polyreactivity (PSR sort gate)” value was “low polyreactivity”.

As to “QVQLVESGGGLVQAGGSLRLSCAASGFTFDVYAMGWYRQAPGKERELVAAITGSDGSTYYADSVKGRFTISRDNAKNTVYLQMNSLKPEDTAVYYCNARSRSVVYKYDYWGQGTQVTVSS”, the “polyreactivity (PSR sort gate)” value was “low polyreactivity”. In the case of “QVQLVESGGGLVQAGGSLRLSCAASGSIFGHNTMGWYRPAPGKERELVAAITWNGGRTYYADSVKGRFTISRDNAMNTVYLQMNSLKPEDTAVYYCNAVVKTYAYKAHRYPSTRLNYWGQGTQVTVSS”, the “polyreactivity (PSR sort gate)” value was “high polyreactivity”.

Consider “QVQLVESGGGLVQAGGSLRLICADSGRIFGWYAMGWYRQAPGKERELVAAITSGSRTSYADSVKGRFTISRDNAKNTVYLQMNSLKPEDTAVYYCNRVSHLDYYWGQGTQVTVSS”, for which the “polyreactivity (PSR sort gate)” value is “high polyreactivity”. “QVQLVESGGGLFQAGGSLRLSCAASGSTFPYNAMGWYRQAPGKERELVAAITWRAGRTYYADSVKGRFTISRDNAKNTVYLQMNSLKPEDTAVYSCAKSYQRGVNHYEYWGQGTQVTVSS”: the “polyreactivity (PSR sort gate)” value is given as “high polyreactivity”. As for “QVQLVESGGGLVQAGGSLRLSCAASGRTFSVNAMGWSRQAPGKERELVAAITYSGGGTYYADSVKGRFTISRDNAKNPVYLQMNSLKPEDTAVYYCAAPVYTWYHRYDYWGQGTQVTVSS”, the “polyreactivity (PSR sort gate)” value is “high polyreactivity”. For the sequence “QVQLVESGGGLVQAGGSLRISCAASGRTFGANAMGWYRQAPGKERELVAGITSSGGSTSYADSVKGRFTISRDNAKNTVYLQMNSLKPEDTAVYYCAKDVYQHIFDVILGGYDSWGLGTQVTVSS”, the “polyreactivity (PSR sort gate)” value is on record as “low polyreactivity”.

Regarding “QVQLVESGGGLVQAGGSLRLSCAASGSIFTYNAMGWYRQAPGKERELVASITWSGGSTYYADSVKGRFTISRDNAKNTVYLQMNSLKPEDTAVYYCAAKRVHGATGYWGQGTQVTVSS”, the “polyreactivity (PSR sort gate)” value is reported as “high polyreactivity”.
